Measurements from US20100278929A1 (MEDLMMUNE, published 2010).
Residue numbers refer to the chain shown, from its start. In names and notes the source's numbering stands.

B1: palivizumab (antibody, V domains shown)
VH: QVTLRESGPALVKPTQTLTLTCTFSGFSLSTSGMSVGWIRQPPGKALEWLADIWWDDKKDYNPSLKSRLTISKDTSKNQVVLKVTNMDPADTATYYCARSMITNWYFDVWGAGTTVTVSS
VL: DIQMTQSPSTLSASVGDRVTITCKCQLSVGYMHWYQQKPGKAPKLLIYDTSKLASGVPSRFSGSGSGTEFTLTISSLQPDDFATYYCFQGSGYPFTFGGGTKLEIK
notes: also called SYNAGIS
B2: A4B4L1FR-S28R (motavizumab) (antibody, V domains shown)
VH: B1 VH with S32A, D60H, S67D, S100D, T103F, W105F, A112Q
VL: B1 VL with K24S, C25A, Q26S, L27S, S28R, L103V

Experiments:
[1] = target: T1, recombinantly produced, C-terminally truncated RSV (A2 strain) F protein (respiratory syncytial virus (A2 strain), UniProt P03420 26-524); assay: SPR, BIAcore 3000; F protein coupled at low density to CM5 chip; KD = koff/kon
T1 construct: extracellular domain; also called RSV F protein; truncated F protein
T1 sequence (P03420 26-109, chain 1 of 2): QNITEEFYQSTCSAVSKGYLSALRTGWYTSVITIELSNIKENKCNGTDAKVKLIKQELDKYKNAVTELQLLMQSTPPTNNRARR
T1 sequence (P03420 137-524, chain 2 of 2): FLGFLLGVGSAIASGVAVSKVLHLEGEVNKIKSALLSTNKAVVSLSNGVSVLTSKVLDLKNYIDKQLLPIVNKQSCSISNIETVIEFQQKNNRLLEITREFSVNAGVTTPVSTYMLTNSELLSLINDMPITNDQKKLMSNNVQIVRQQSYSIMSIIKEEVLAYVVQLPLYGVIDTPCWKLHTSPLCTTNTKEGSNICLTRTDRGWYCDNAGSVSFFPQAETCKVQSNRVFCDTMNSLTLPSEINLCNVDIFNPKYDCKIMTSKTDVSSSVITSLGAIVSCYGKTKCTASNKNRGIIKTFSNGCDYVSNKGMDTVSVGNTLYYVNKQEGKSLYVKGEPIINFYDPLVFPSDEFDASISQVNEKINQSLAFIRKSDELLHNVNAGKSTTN
Description: (§1) Purified F protein was covalently coupled to an N-hydroxysuccinimide-N-ethyl-N′-[3-diethylaminopropyl]-carbodiimide (EDC/NHS) activated CM5 sensor chip at a low protein density according to the manufacturer's protocol; unreacted active ester groups were blocked with 1 M ethanolamine. For reference purposes, a blank surface, containing no antigen, was prepared under identical immobilization conditions.
(§2) For kinetic measurements, a serial 2-fold dilution series of each mAb from 100 nm-0.2 nm, made in instrument buffer (HBS/Tween-20, BIAcore, Inc.), was injected over the F-protein and reference cell surfaces, which are connected in series. In each analysis, following the dissociation phase, the remaining bound antibody was removed from the sensor chip by passing a brief pulse of 100 mM HCl over the surface. Once an entire data set was collected, the resulting binding curves were globally fitted to a 1:1 Langmuir binding model using BIAevaluation software (BIAcore, Inc., Piscataway, N.J.). This algorithm calculates both the association rate (kₒₙ) and the dissociation rate (koff), from which the apparent equilibrium binding constant, KD, for each antibody was deduced as the ratio of the two rate constants, koff/kₒₙ.

[2] = target: T2, RSV (Long strain) F protein on infectious virus (respiratory syncytial virus (Long …, UniProt P12568 26-574)); assay: cell-based or functional assay
[3] = target: T2, RSV (Long strain) F protein on …; assay: cell-based or functional assay; remark: listed apart in the source
[4] = target: T1, recombinantly produced, C-terminally …; assay: SPR, BIAcore 3000; F protein coupled at low density to CM5 chip, mAb injected at 100-0.2 nM; 1:1 Langmuir fit
Description: as §1, §2

[5] = target: T2, RSV (Long strain) F protein on …; assay: cell-based or functional assay; remark: listed apart in the source
[6] = target: T2, RSV (Long strain) F protein on …; assay: cell-based or functional assay; remark: listed apart in the source

Binder | Kd [1] [nM] | average IC50, RSV microneutralization assay [2] [mg/L] | Mean IC50 (Control), RSV microneutralization [3] [mg/L] | Mean IC50 (Curve), RSV microneutralization [3] [mg/L] | koff [4] [s⁻¹] | kon [4] [M⁻¹ s⁻¹] | IC50 (read off the curve) [5] [mg/L] | fold potency against palivizumab, RSV microneutralization assay [2] [fold] | IC50 (read off the curve); sample: Cyno-69 BAL [6] [mg/L] | IC50 (read off the curve); sample: purified MEDI-524 control [6] [mg/L]
B1 | 3.46 | 0.315 | 0.535 | 0.453 | 0.000395 | 114000 | ~0.4 | – | – | –
B2 | – | 0.018 | – | – | – | – | ~0.02 | ~18 | ~0.01 | ~0.007
